Seven molecules from US20070087001A1 (CENTER FOR MOLECULAR MEDICINE AND IMMUNOLOGY, published 2007) can be followed below.

In experiment [1] the target is T1, Recombinant human placenta growth factor-2 (PlGF-2) (human) (UniProt P49763).
T1 sequence (looked up): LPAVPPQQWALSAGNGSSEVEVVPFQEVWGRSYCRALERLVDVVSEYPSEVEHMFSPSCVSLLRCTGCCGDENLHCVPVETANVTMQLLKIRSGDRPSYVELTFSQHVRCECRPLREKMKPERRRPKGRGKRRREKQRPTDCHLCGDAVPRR
Put plainly: cell-based or functional assay.

Experiment [2] deals with T2, Recombinant human Flt-1 fusion protein (human, UniProt P17948 27-756).
T2 construct: Bought fusion protein coated on plates at 10 µg/ml; also called VEGFR1; VEGF receptor I
T2 sequence (P17948 27-756): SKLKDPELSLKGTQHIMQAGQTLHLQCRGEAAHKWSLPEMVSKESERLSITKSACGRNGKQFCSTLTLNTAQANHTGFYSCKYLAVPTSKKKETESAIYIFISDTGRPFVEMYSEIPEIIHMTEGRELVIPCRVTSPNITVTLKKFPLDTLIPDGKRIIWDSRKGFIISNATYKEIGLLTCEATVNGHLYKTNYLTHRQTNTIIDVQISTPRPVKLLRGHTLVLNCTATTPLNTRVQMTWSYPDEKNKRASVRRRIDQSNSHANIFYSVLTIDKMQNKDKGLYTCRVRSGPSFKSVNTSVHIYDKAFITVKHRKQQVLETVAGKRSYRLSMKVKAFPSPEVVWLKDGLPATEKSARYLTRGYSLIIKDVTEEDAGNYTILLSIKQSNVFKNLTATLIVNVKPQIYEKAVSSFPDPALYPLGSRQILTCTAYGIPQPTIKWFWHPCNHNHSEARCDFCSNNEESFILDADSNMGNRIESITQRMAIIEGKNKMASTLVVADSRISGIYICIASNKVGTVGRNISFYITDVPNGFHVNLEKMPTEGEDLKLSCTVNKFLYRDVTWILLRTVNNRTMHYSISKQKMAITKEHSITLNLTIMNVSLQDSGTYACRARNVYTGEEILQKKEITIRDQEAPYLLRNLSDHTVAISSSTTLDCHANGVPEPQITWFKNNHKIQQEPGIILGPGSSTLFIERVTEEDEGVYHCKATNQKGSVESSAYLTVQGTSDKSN
Put plainly: ELISA, free FLAG-tagged peptide on Flt-1-coated wells. In general terms: In an ELISA, binding on a coated surface is turned into a signal by an enzyme label.

The target of experiment [3] is T3, Recombinant human placenta growth factor-2 (PlGF-2) (human, UniProt P49763-3 19-170, limits assumed).
T3 construct: Bought protein; also called rhuPlGF
T3 sequence (looked up): T1 sequence (looked up)
Put plainly: ELISA, free FLAG-tagged peptide on PlGF-coated wells.

The target in experiment [4] is T1, Recombinant human placenta growth factor-2 (PlGF-2) (human). Put plainly: phage ELISA on PlGF-coated plates, anti-M13-HRP detection; phage library background 0.003.
The target in experiment [5] is T3, Recombinant human placenta growth …. Put plainly: cell-based or functional assay.
Experiment [6] has as its target T4, Recombinant human VEGF 165 (human, UniProt P15692-4 27-191).
T4 construct: Bought protein
Put plainly: ELISA-based binding assay.

For experiment [7], the target named is T3, Recombinant human placenta growth …. Put plainly: cell-based or functional assay. This is another data set of the same source.
Experiment [8] deals with T2, Recombinant human Flt-1 fusion protein. Put plainly: ELISA-based binding assay.
Experiment [9] concerns the target T4, Recombinant human VEGF 165. Put plainly: ELISA, FLAG-tagged free peptide on VEGF165-coated wells, anti-FLAG detection.

Ends that are not written are not given here.

T4 sequence (P15692 other isoform, or with tags, fused parts or gaps limits assumed): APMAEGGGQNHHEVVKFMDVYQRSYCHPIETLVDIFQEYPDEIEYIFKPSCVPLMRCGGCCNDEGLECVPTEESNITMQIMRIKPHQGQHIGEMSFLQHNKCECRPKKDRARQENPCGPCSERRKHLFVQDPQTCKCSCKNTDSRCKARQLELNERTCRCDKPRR

As for “Human recombinant soluble Flt-1 (sFlt-1) (from UniProt P17948 27-756) (receptor)”, in experiment [1], the Block of the stimulatory effect of PlGF on motility, MCF-7 came out at 67%; the Block of the stimulatory effect of PlGF on motility, MDA-MB-231 is 55%; the Migrating cells (wound-healing assay, MCF-7, PlGF 2 nM + Flt-1 2 nM) (cells/100x field) was found to be 10.4; the Migrating cells (wound-healing assay, MDA-MB-231, PlGF 2 nM + Flt-1 2 nM) (cells/100x field) turned out to be 19.1. For the same molecule, in experiment [1], the Migrating cells (wound-healing assay, MDA-MB-468, PlGF 2 nM + Flt-1 2 nM) (cells/100x field) was found to be 7.8; the Relative activity (wound-healing assay, MCF-7) (relative to PlGF-only = 100) is 47; the Relative activity (wound-healing assay, MDA-MB-231) (relative to PlGF-only = 100) amounted to 45; the Relative activity (wound-healing assay, MDA-MB-468) (relative to PlGF-only = 100) was found to be 53.

B1: Peptide BP4 synthesized with a linker and a C-terminal FLAG epitope (peptide, not shown: small tags and cut ends)
peptide: RMPYSEHSAPLGDYKDDDDK
modifications: also: linker between peptide and FLAG epitope, sequence not given here
Regarding B1, the binding result is listed as “no binding” in [2] and “no binding (tested: 50 µM)” in [3].

B2: Phage BP1 (BP1 peptide displayed on M13 phage) (peptide, not shown: large carriers; small tags and cut ends)
peptide: SHRYRLAIQLHASDSSSSCV
modifications: also: displayed on M13 phage, fused to pIII coat protein, spacer and fusion end not given here
For the molecule B2, the absorbance (410 nm) in [4] stood at 0.024 A410.

B3: Peptide BP3 synthesized with a linker and a C-terminal FLAG epitope (peptide, not shown: small tags and cut ends)
peptide: QEAFNRLTSRMHDYKDDDDK
modifications: also: linker between peptide and FLAG epitope, sequence not given here
For the molecule B3, the binding result in experiment [2] is recorded as “no binding”; in experiment [3] it was “no binding (tested: 50 µM)”.

B4: Control peptide CPA (BP1 with A substituted for the H, R and D residues) (peptide)
peptide: SAAYALAIQLAASASSSSCV
In the case of B4, in [5], the “Relative activity (wound-healing assay, MDA-MB-231)” value is 106 relative to PlGF-only = 100 and the “Relative activity (wound-healing assay, MDA-MB-468)” value is 147 relative to PlGF-only = 100. The binding result in experiment [6] is listed as “binds”. Besides, in experiment [7], the “Average fold-change in invading cells vs untreated (MCF-7, PlGF 0.2 nM + CPA 2 µg/ml)” value came out at 1 fold vs untreated; the “Average fold-change in invading cells vs untreated (MDA-MB-231, PlGF 0.2 nM + CPA 2 µg/ml)” value amounted to 4.9 fold vs untreated; the “Average fold-change in invading cells vs untreated (MDA-MB-468, PlGF 0.2 nM + CPA 2 µg/ml)” value amounted to 1.2 fold vs untreated.

B5: Binding Peptide 1 (BP1), synthetic peptide (peptide)
peptide: SHRYRLAIQLHASDSSSSCV
As for B5, in experiment [5], the “Relative activity (wound-healing assay, MCF-7)” value is 45 relative to PlGF-only = 100; the “Relative activity (wound-healing assay, MDA-MB-231)” value is 32 relative to PlGF-only = 100; the “Relative activity (wound-healing assay, MDA-MB-468)” value was 97 relative to PlGF-only = 100. Further, in experiment [7], the “Average fold-change in invading cells vs untreated (MCF-7, PlGF 0.2 nM + BP1 2 µg/ml)” value came out at 0.3 fold vs untreated; the “Average fold-change in invading cells vs untreated (MDA-MB-231, PlGF 0.2 nM + BP1 2 µg/ml)” value is 1.3 fold vs untreated; the “Average fold-change in invading cells vs untreated (MDA-MB-468, PlGF 0.2 nM + BP1 2 µg/ml)” value was found to be 0.6 fold vs untreated.

B6: Peptide BP1 (Binding Peptide 1) synthesized with a linker and a C-terminal FLAG epitope (peptide, not shown: small tags and cut ends)
peptide: SHRYRLAIQLHASDSSSSCVDYKDDDDK
modifications: also: linker between peptide and FLAG epitope, sequence not given here
notes: detected by probing for FLAG
On to B6, for which, in [8], the fold over background was determined as 10 fold over background. Moreover, the A490 in [9] worked out at 0.299 A490.
